{
  "source": "paper PMC10397247",
  "test_in_all_cases": "two-hybrid library CCmax;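 note: natural log of median RNA to DNA barcode read ratio; higher means stronger binding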",
  "key": {"4H1392-AA": {"molecular_target": "T1, 4H1392-AA", "T1 chain": "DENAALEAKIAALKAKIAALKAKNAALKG", "conditions": "mean of both orientations"}, "GCN2_T": {"molecular_target": "GCN2_T"}, "4H2888-AA": {"molecular_target": "T2, 4H2888-AA", "T2 chain": "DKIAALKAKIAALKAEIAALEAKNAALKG", "conditions": "mean of both orientations"}, "4H4038-AA": {"molecular_target": "T3, 4H4038-AA", "T3 chain": "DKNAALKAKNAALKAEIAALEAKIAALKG", "conditions": "mean of both orientations"}, "4H451-AA": {"molecular_target": "T4, 4H451-AA", "T4 chain": "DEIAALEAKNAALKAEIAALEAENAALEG", "conditions": "mean of both orientations"}, "4H337-AA": {"molecular_target": "T5, 4H337-AA", "T5 chain": "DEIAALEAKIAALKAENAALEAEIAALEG", "conditions": "mean of both orientations"}, "4H_BCR": {"molecular_target": "T6, 4H_BCR", "T6 chain": "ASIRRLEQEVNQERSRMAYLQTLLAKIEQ", "conditions": "mean of both orientations"}, "4H3625-AA": {"molecular_target": "T7, 4H3625-AA", "T7 chain": "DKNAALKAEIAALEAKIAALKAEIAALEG", "conditions": "mean of both orientations"}, "4H1385-AA": {"molecular_target": "T8, 4H1385-AA", "T8 chain": "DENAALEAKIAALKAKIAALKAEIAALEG", "conditions": "mean of both orientations"}, "4H134-AA": {"molecular_target": "T9, 4H134-AA", "T9 chain": "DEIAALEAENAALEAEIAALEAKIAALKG", "conditions": "mean of both orientations"}, "4H1070-AA": {"molecular_target": "T10, 4H1070-AA", "T10 chain": "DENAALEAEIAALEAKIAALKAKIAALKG"}, "4H510-AA": {"molecular_target": "T11, 4H510-AA", "T11 chain": "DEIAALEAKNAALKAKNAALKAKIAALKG", "conditions": "mean of both orientations"}, "4H_GCN4": {"molecular_target": "4H_GCN4", "sequence (chain, as listed by the source)": "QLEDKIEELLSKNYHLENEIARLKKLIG", "conditions": "mean of both orientations"}, "O14-AA": {"molecular_target": "T12, O14-AA", "T12 chain": "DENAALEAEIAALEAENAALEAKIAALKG", "conditions": "mean of both orientations"}, "4H3905-AA": {"molecular_target": "T13, 4H3905-AA", "T13 chain": "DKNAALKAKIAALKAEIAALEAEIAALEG", "conditions": "mean of both orientations"}, "4H3590-AA": {"molecular_target": "T14, 4H3590-AA", "T14 chain": "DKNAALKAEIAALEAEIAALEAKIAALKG", "conditions": "mean of both orientations"}, "4H2736-AA": {"molecular_target": "T15, 4H2736-AA", "T15 chain": "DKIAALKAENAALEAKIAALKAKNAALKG", "conditions": "mean of both orientations"}, "4H1193-AA": {"molecular_target": "T16, 4H1193-AA", "T16 chain": "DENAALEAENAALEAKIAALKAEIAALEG", "conditions": "mean of both orientations"}, "4H2705-AA": {"molecular_target": "T17, 4H2705-AA", "T17 chain": "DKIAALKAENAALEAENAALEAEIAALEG", "conditions": "mean of both orientations"}, "4H43-AA": {"molecular_target": "T18, 4H43-AA", "T18 chain": "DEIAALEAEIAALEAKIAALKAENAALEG", "conditions": "mean of both orientations"}, "4H3587-AA": {"molecular_target": "T19, 4H3587-AA", "T19 chain": "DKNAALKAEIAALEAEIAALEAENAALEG", "conditions": "mean of both orientations"}, "4H1350-AA": {"molecular_target": "T20, 4H1350-AA", "T20 chain": "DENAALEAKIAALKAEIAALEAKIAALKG", "conditions": "mean of both orientations"}, "4H3049-AA": {"molecular_target": "T21, 4H3049-AA", "T21 chain": "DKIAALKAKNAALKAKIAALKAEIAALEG", "conditions": "mean of both orientations"}, "O11-AA": {"molecular_target": "T22, O11-AA", "T22 chain": "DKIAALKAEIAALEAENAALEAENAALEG"}, "O13-AA": {"molecular_target": "T23, O13-AA", "T23 chain": "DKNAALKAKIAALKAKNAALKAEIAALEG", "conditions": "mean of both orientations"}, "4H2622-AA": {"molecular_target": "T24, 4H2622-AA", "T24 chain": "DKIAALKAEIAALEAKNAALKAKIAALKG", "conditions": "mean of both orientations"}, "4H384-AA": {"molecular_target": "T25, 4H384-AA", "T25 chain": "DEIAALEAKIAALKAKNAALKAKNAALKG"}},
  "data": [
    {"binder": "DENAALEAEIAALEAKIAALKAKIAALKG", "note": "[4H1070-AA]", "values": [
      {"measurement": "interaction score", "setting": "4H1392-AA", "result": -0.733},
      {"measurement": "interaction score", "setting": "GCN2_T", "result": -0.746},
      {"measurement": "interaction score", "setting": "4H2888-AA", "result": 1.51},
      {"measurement": "interaction score", "setting": "4H4038-AA", "result": 1.53},
      {"measurement": "interaction score", "setting": "4H451-AA", "result": -1.11},
      {"measurement": "interaction score", "setting": "4H337-AA", "result": 0.472},
      {"measurement": "interaction score", "setting": "4H_BCR", "result": -1.54},
      {"measurement": "interaction score", "setting": "4H3625-AA", "result": 1.73},
      {"measurement": "interaction score", "setting": "4H1385-AA", "result": 1.6},
      {"measurement": "interaction score", "setting": "4H134-AA", "result": 1.2},
      {"measurement": "interaction score", "setting": "4H1070-AA", "result": 2.05},
      {"measurement": "interaction score", "setting": "4H510-AA", "result": -1.68},
      {"measurement": "interaction score", "setting": "4H_GCN4", "result": -1.5},
      {"measurement": "interaction score", "setting": "O14-AA", "result": 0.236},
      {"measurement": "interaction score", "setting": "4H3905-AA", "result": 2.23},
      {"measurement": "interaction score", "setting": "4H3590-AA", "result": 2.25},
      {"measurement": "interaction score", "setting": "4H2736-AA", "result": -0.965},
      {"measurement": "interaction score", "setting": "4H1193-AA", "result": -0.64},
      {"measurement": "interaction score", "setting": "4H2705-AA", "result": -1.19},
      {"measurement": "interaction score", "setting": "4H43-AA", "result": 1.94},
      {"measurement": "interaction score", "setting": "4H3587-AA", "result": 1.56},
      {"measurement": "interaction score", "setting": "4H1350-AA", "result": 1.96},
      {"measurement": "interaction score", "setting": "4H3049-AA", "result": 0.86},
      {"measurement": "interaction score", "setting": "O11-AA", "result": 1.22},
      {"measurement": "interaction score", "setting": "O13-AA", "result": -0.784},
      {"measurement": "interaction score", "setting": "4H2622-AA", "result": 1.21},
      {"measurement": "interaction score", "setting": "4H384-AA", "result": -0.364}
    ]}
  ]
}
